From US11707504B1 (KING FAISAL UNIVERSITY, dated 2023) come the findings set out here.

This assay concerns the target HCoV-229E spike (S) protein, S2 subunit fusion core (HR1/HR2) (human coronavirus 229E, UniProt P15423). Kind of assay: cell-based or functional assay.

B1: peptide #1 (Peptide 1 (WT)) (peptide)
peptide: SLTQINTTLLDLTYEMLSLQQVVKALNESYIDLKEL
As to B1, the “IC50 (plaque reduction test, Vero E6 cells)” value was 8.5 µg/mL.
